Data taken from patent publication CN111690066A (NANJING RONGJIEKANG BIOTECHNOLOGY CO LTD, dated 2020).

T1: 自产IL-4Rα重组蛋白 (in-house human recombinant IL-4Rα, residues 26-232 of NP_000409.1, expressed in 293F cells) (human, UniProt P24394 26-232)
T1 construct: range 26-232; Cloned into pcDNA3.4 and expressed in 293F cells; The construct itself is defined on NP_000409.1; also called RJK; 人源重组IL-4Rα蛋白
T1 sequence (looked up): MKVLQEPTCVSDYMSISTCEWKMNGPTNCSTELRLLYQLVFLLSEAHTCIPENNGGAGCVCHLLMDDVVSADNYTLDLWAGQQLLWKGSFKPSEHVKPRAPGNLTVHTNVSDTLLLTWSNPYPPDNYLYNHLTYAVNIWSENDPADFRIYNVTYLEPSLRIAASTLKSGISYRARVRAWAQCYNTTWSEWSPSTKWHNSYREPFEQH

B1: 单域抗体 4E9 (VHH)
VHH: QVQLVESGGGSVQAGGSLRLSCAASGDFYCMAWFRQAPGKEREGVATIRSGGRSTYYADSVKGRFTISKDNAKDTLYLQMNSLKPEDTAMYYCAVGVDGNCRNYWGQGTQVTVSS
B2: 单域抗体 1A9 (VHH)
VHH 1: QVPLQQSGPELVKPGASVKISCKASGYAFSSSWMNWVKQRPGKGLEWIGRIYPGDGDTKYNGKFKGKATLTADKSSSTAYMQLSSLTSEDSAVYFCARDDYDEASWGQGTLVTVSA
VHH 2: DIVMTQSQKFMSTSVGDRVSITCKASQNVRSAVAWYQQKPGQSPKSLIYLASNRHTGVPDRFTGSGSGTDFTLTISNVQSEDLADYFCLQHWNYPFTFGSGTKLEIK

Legend:
[1] = biological target: T1, 自产IL-4Rα重组蛋白 (in-house human …); test: binding ELISA of purified VHH on IL-4Rα recombinant protein
[2] = biological target: T1, 自产IL-4Rα重组蛋白 (in-house human …); test: BLI (Octet RED96), IL-4Rα loaded on the sensor, antibody in solution from 100 nM in 2-fold dilutions

| Binder | EC50 [1] | Kd [2] | koff [2] | kon [2] |
| --- | --- | --- | --- | --- |
| B1 | 2.13 nM | 0.239 nM | 0.000133 s⁻¹ | 556000 M⁻¹ s⁻¹ |
| B2 | 2.72 nM | – | – | – |
